Numbering of substitutions follows the chain as printed. Names and notes keep the numbering of the source. Blank lines part the entries; values can stand above or below the binder they belong to.
Tests used:
Assay in all cases: sandwich ELISA with mis-matched antigens
[1] = target: T1, hHER-2-Fc (human, UniProt P04626 23-652)
T1 construct: Bought (R&D systems); Coated on the plate; not shown: Fc of the bought fusion protein
Experimental: (§1) The dual-binding activity of the same synthesized IgG BsAbs is assessed using a sandwich ELISA. […] Sandwich ELISAs are developed for detecting the four different BsAb test articles; one for detecting anti-HER-2/anti-EGFR BsAb activity, one for detecting anti-HER-2/anti-LTPR BsAb activity, one for detecting anti-cMET/anti-EGFR BsAb activity and one for detecting anti-cMET/anti-LTPR BsAb activity. For all ELISAs, clear 96-well round bottom high binding Immulon microtiter plates (Greiner bio-one, cat #650061) are coated overnight at 2-8° C. with 50 μL/well 1 μg/mL hHER-2-Fc or 1 μg/mL hHGFR(cMet)-Fc (both from R&D systems) in a 50 mM Na2CO3 pH 8.3 buffer. The plates are washed 4 times with PBST and blocked with 200 μL/well casein buffer (Pierce) for 1 hr at room temperature. The plates are then washed 4 times with PBST and the parental IgG controls or BsAb IgG test articles are added at 50 μL/well and […] and serially diluted 1:3 down the plate. The controls and test articles are incubated on the plate for 1 hr at room temperature. The plates are then washed 4 times with PBST and 50 μL/well 1 μg/mL hEGFR-Fc-biotin or hLTβR-Fc-biotin (both from R&D systems) is added for 1 hr at room temperature. The plates are then washed 4 times with PBST followed by the addition of a 50 μL/well streptavidin-AP (Jackson Immunoresearch Labs Cat. #016-050-084) diluted 1:1000 in casein buffer. The streptavidin-AP is incubated in each well for 1 hr at room temperature. The plates are then washed 4 times with PBST and 100 μL/well 1-step PNPP substrate is added (Thermo Scientific Cat. #37621). After approximately 5-15 minutes, plates are read for Absorbance (405 nm) using a SPECTRAMAX® UV plate reader (Molecular Devices). Biotin-labeling of the hEGFR-Fc and hLTβR-Fc proteins is performed using EZ-LINK™ Sulfo-NHS-LC-Biotin (Thermo Scientific Cat. #21327) according to the manufacturer's protocol.

[2] = target: T2, hLTβR-Fc-biotin (human, UniProt P36941 28-227, limits assumed, biotin-labelled with EZ-LINK Sulfo-NHS-LC-Biotin)
T2 construct: Bought (R&D systems); Detection antigen of the sandwich; also called LTPR (as printed once); not shown: Fc of the bought fusion protein
T2 sequence (P36941 28-227 limits assumed): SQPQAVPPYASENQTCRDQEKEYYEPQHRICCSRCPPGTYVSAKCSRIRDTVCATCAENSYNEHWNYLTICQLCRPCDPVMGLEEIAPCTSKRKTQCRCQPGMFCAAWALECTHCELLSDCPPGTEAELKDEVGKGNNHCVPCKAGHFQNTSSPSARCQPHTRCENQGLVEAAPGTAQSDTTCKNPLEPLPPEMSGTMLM
Experimental: as §1

[3] = target: T3, hHGFR(cMet)-Fc (human, UniProt P08581 25-932)
T3 construct: Bought (R&D systems); Coated on the plate; not shown: Fc of the bought fusion protein
T3 sequence (P08581 25-932): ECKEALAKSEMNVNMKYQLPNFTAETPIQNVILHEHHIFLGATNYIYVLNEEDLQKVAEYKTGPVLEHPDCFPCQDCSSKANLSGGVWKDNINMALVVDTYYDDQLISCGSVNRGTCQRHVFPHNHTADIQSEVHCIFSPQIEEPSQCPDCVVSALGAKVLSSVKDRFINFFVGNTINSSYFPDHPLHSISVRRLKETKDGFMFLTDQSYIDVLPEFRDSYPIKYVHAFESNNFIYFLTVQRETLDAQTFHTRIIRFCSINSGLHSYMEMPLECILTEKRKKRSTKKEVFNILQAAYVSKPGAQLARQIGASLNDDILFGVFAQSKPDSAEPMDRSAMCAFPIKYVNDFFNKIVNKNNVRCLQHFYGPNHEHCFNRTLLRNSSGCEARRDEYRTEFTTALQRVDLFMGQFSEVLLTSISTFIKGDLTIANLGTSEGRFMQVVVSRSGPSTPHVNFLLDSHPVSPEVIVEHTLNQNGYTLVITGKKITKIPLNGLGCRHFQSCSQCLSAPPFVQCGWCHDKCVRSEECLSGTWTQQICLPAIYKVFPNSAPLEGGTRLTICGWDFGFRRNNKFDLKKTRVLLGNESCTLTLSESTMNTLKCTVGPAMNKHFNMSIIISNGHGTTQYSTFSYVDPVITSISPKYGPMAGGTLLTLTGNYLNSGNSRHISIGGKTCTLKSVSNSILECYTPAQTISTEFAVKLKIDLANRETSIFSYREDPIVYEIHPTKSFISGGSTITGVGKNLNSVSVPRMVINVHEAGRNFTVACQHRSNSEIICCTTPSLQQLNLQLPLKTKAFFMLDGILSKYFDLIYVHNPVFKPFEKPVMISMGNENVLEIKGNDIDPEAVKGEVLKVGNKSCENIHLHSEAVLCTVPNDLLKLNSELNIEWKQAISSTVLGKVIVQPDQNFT
Experimental: as §1

[4] = target: T4, hEGFR-Fc-biotin (human, UniProt P00533 25-645, biotin-labelled with EZ-LINK Sulfo-NHS-LC-Biotin)
T4 construct: Bought (R&D systems); Detection antigen of the sandwich; not shown: Fc of the bought fusion protein
Experimental: as §1

binding result [1]: no binding
binding result [2]: no binding
B1: MetMAb × Matuzumab IgG BsAb, CH1/Cκ Wild-Type (AB / H4DR variable domain designs, 7.8.60 CH3, N297Q) (bispecific antibody)
heavy 1: EVQLVESGGGLVQPGGSLRLSCAASGYTFTSYWLHWVRKAPGKGLEWVGMIDPSNSDTRFNPEFKDRFTISADTSKNTAYLQMNSLRAEDTAVYYCATYRSYVTPLDYWGQGTLVTVSSASTKGPSVFPLAPSSKSTSGGTAALGCLVKDYFPEPVTVSWNSGALTSGVHTFPAVLQSSGLYSLSSVVTVPSSSLGTQTYICNVNHKPSNTKVDKKVEPKSCDKTHTCPPCPAPELLGGPSVFLFPPKPKDTLMISRTPEVTCVVVDVSHEDPEVKFNWYVDGVEVHNAKTKPREEQYQSTYRVVSVLTVLHQDWLNGKEYKCKVSNKALPAPIEKTISKAKGQPREPQVYTLPPSREEMTDNQVSLTCLVKGFYPSDIAVEWESNGQPENNYKTTPPVLMSDGSFFLASKLTVDKSRWQQGNVFSCSVMHEALHNHYTQKSLSLSPG
light 1: RIQMTQSPSSLSASVGDRVTITCKSSQSLLYTSSQKNYLAWYQDKPGKAPKLLIYWASTRESGVPSRFSGSGSGTDFTLTISSLQPEDFATYYCQQYYAYPWTFGQGTKVEIKRTVAAPSVFIFPPSDEQLKSGTASVVCLLNNFYPREAKVQWKVDNALQSGNSQESVTEQDSKDSTYSLSSTLTLSKADYEKHKVYACEVTHQGLSSPVTKSFNRGEC
heavy 2: QVQLVQSGAEVKKPGASVKVSCKASGYTFTSHWMHWVRYAPGQGLEWIGEFNPSNGRTNYNEKFKSKATMTVDTSTNTAYMELSSLRSEDTAVYYCASRDYDYDGRYFDYWGRGTLVTVSSASTKGPSVFPLAPSSKSTSGGTAALGCLVKDYFPEPVTVSWNSGALTSGVHTFPAVLQSSGLYSLSSVVTVPSSSLGTQTYICNVNHKPSNTKVDKKVEPKSCDKTHTCPPCPAPELLGGPSVFLFPPKPKDTLMISRTPEVTCVVVDVSHEDPEVKFNWYVDGVEVHNAKTKPREEQYQSTYRVVSVLTVLHQDWLNGKEYKCKVSNKALPAPIEKTISKAKGQPRRPRVYTLPPSREEMTKNQVSLVCLVKGFYPSDIAVEWESNGQPENNYKTTPPVLDSDGSFFLYSVLTVDKSRWQQGNVFSCSVMHEALHNHYTQKSLSLSPG
light 2: DIQMTQSPSSLSASVGDRVTITCSASSSVTYMYWYQRKPGDAPKLLIYDTSNLASGVPSRFSGSGSGTDYTFTISSLQPEDIATYYCQQWSSHIFTFGQGTKVEIKRTVAAPSVFIFPPSDEQLKSGTASVVCLLNNFYPREAKVQWKVDNALQSGNSQESVTEQDSKDSTYSLSSTLTLSKADYEKHKVYACEVTHQGLSSPVTKSFNRGEC
notes: Human IgG1; also called MetMAb × Matuzumab Wild-Type

binding result [1]: no binding
binding result [2]: no binding
B2: MetMAb × Matuzumab IgG BsAb, CH1/Cκ design 14.1.2 (bispecific antibody)
heavy 1: B1 heavy 1 with K149A, K215E
light 1: B1 light 1 with E129K, S137R
heavy 2: B1 heavy 2
light 2: B1 light 2
notes: Human IgG1; also called MetMAb × Matuzumab 14.1.2

binding result [1]: no binding
binding result [2]: no binding
B3: MetMAb × Matuzumab IgG BsAb, CH1/Cκ design 14.3.1.1 (bispecific antibody)
heavy 1: B1 heavy 1 with K149A, S185A
light 1: B1 light 1 with S137R, S182I
heavy 2: B1 heavy 2 with K217E
light 2: B1 light 2 with E122K
notes: Human IgG1; also called MetMAb × Matuzumab 14.3.1.1

binding result [1]: no binding
binding result [2]: no binding
B4: MetMAb × Matuzumab IgG BsAb, CH1/Cκ design 14.3.1.2 (bispecific antibody)
heavy 1: B1 heavy 1 with K149A, S185G
light 1: B1 light 1 with S137R, S182I
heavy 2: B1 heavy 2 with K217E
light 2: B1 light 2 with E122K
notes: Human IgG1; also called MetMAb × Matuzumab 14.3.1.2

binding result [3]: no binding
binding result [4]: no binding
B5: Pertuzumab × BHA10 IgG BsAb, CH1/Cκ design 14.3.1.1 (bispecific antibody)
heavy 1: EVQLVESGGGLVQPGGSLRLSCAASGFTFTDYTMDWVRKAPGKGLEWVADVNPNSGGSIYNQEFKGRFTLSVDRSKNTLYLQMNSLRAEDTAVYYCARNLGPSFYFDYWGQGTLVTVSSASTKGPSVFPLAPSSKSTSGGTAALGCLVADYFPEPVTVSWNSGALTSGVHTFPAVLQSSGLYSLASVVTVPSSSLGTQTYICNVNHKPSNTKVDKKVEPKSCDKTHTCPPCPAPELLGGPSVFLFPPKPKDTLMISRTPEVTCVVVDVSHEDPEVKFNWYVDGVEVHNAKTKPREEQYQSTYRVVSVLTVLHQDWLNGKEYKCKVSNKALPAPIEKTISKAKGQPREPQVYTLPPSREEMTDNQVSLTCLVKGFYPSDIAVEWESNGQPENNYKTTPPVLMSDGSFFLASKLTVDKSRWQQGNVFSCSVMHEALHNHYTQKSLSLSPG
light 1: RIQMTQSPSSLSASVGDRVTITCKASQDVSIGVAWYQDKPGKAPKLLIYSASYRYTGVPSRFSGSGSGTDFTLTISSLQPEDFATYYCQQYYIYPYTFGQGTKVEIKRTVAAPSVFIFPPSDEQLKSGTARVVCLLNNFYPREAKVQWKVDNALQSGNSQESVTEQDSKDSTYSLISTLTLSKADYEKHKVYACEVTHQGLSSPVTKSFNRGEC
heavy 2: QVQLVQSGAEVKKPGSSVKVSCKASGYTFTTYYLHWVRYAPGQGLEWMGWIYPGNVHAQYNEKFKGRVTITADKSTSTAYMELSSLRSEDTAVYYCARSWEGFPYWGRGTTVTVSSASTKGPSVFPLAPSSKSTSGGTAALGCLVKDYFPEPVTVSWNSGALTSGVHTFPAVLQSSGLYSLSSVVTVPSSSLGTQTYICNVNHKPSNTKVDEKVEPKSCDKTHTCPPCPAPELLGGPSVFLFPPKPKDTLMISRTPEVTCVVVDVSHEDPEVKFNWYVDGVEVHNAKTKPREEQYQSTYRVVSVLTVLHQDWLNGKEYKCKVSNKALPAPIEKTISKAKGQPRRPRVYTLPPSREEMTKNQVSLVCLVKGFYPSDIAVEWESNGQPENNYKTTPPVLDSDGSFFLYSVLTVDKSRWQQGNVFSCSVMHEALHNHYTQKSLSLSPG
light 2: DIQMTQSPSSLSASVGDRVTITCKASQNVGINVAWYQRKPGDAPKSLISSASYRYSGVPSRFSGSGSGTDFTLTISSLQPEDFATYFCQQYDTYPFTFGQGTKVEIKRTVAAPSVFIFPPSDKQLKSGTASVVCLLNNFYPREAKVQWKVDNALQSGNSQESVTEQDSKDSTYSLSSTLTLSKADYEKHKVYACEVTHQGLSSPVTKSFNRGEC
notes: Human IgG1; also called Pertuzumab × BHA10 14.3.1.1

binding result [2]: no binding
binding result [3]: no binding
B6: Pertuzumab × Matuzumab IgG BsAb, CH1/Cκ Wild-Type (AB / H4DR variable domain designs, 7.8.60 CH3, N297Q) (bispecific antibody)
heavy 1: B5 heavy 1 with A149K, A185S
light 1: B5 light 1 with R131S, I176S
heavy 2: B1 heavy 2
light 2: B1 light 2
notes: Human IgG1; also called Pertuzumab × Matuzumab Wild-Type

binding result [3]: no binding
binding result [4]: no binding
B7: Pertuzumab × BHA10 IgG BsAb, CH1/Cκ design 14.3.1.2 (bispecific antibody)
heavy 1: B5 heavy 1 with A185G
light 1: B5 light 1
heavy 2: B5 heavy 2
light 2: B5 light 2
notes: Human IgG1; also called Pertuzumab × BHA10 14.3.1.2

binding result [2]: no binding
binding result [3]: no binding
B8: Pertuzumab × Matuzumab IgG BsAb, CH1/Cκ design 14.3.1.1 (bispecific antibody)
heavy 1: B5 heavy 1
light 1: B5 light 1
heavy 2: B1 heavy 2 with K217E
light 2: B1 light 2 with E122K
notes: Human IgG1; also called Pertuzumab × Matuzumab 14.3.1.1

binding result [2]: no binding
binding result [3]: no binding
B9: Pertuzumab × Matuzumab IgG BsAb, CH1/Cκ design 14.1.2 (bispecific antibody)
heavy 1: B5 heavy 1 with A185S, K215E
light 1: B5 light 1 with E123K, I176S
heavy 2: B1 heavy 2
light 2: B1 light 2
notes: Human IgG1; also called Pertuzumab × Matuzumab 14.1.2

binding result [2]: no binding
binding result [3]: no binding
B10: Pertuzumab × Matuzumab IgG BsAb, CH1/Cκ design 14.3.1.2 (bispecific antibody)
heavy 1: B5 heavy 1 with A185G
light 1: B5 light 1
heavy 2: B1 heavy 2 with K217E
light 2: B1 light 2 with E122K
notes: Human IgG1; also called Pertuzumab × Matuzumab 14.3.1.2
